According to publication PMC3092982, “Zinc Binding to the Tyr402 and His402 Allotypes of Complement Factor H: Possible Implications for Age-Related Macular Degeneration” (Journal of Molecular Biology, 2011):
Changes are numbered by the printed parent chain.

B1: recombinant FH fragment SCR-6/8 Tyr402 (domain or fragment, human)
chain: LKPCDYPDIKHGGLYHENMRRPYFPVAVGKYYSYYCDEHFETPSGSYWDHIHCTQDGWSPAVPCLRKCYFPYLENGYNQNYGRKFVQGKSIDVACHPGYALPKAQTTVTCMENGWSPTPRCIRVKTCSKSSIDIENGFISESQYTYALKEKAKYQCKLGYVTADGETSGSITCGKDGWSAQPTCI
notes: complement factor H, human, SCR domains 6 to 8, Tyr402 allotype; It says that SCR-6/8, unlike SCR-1/5 and SCR-16/20, has no His6-tag; also called SCR-6/8 Tyr402 allotype; source: E. coli BL21 (DE3), pET21ab
B2: recombinant FH fragment SCR-6/8 His402 (domain or fragment, human)
chain: B1 chain with Y81H
notes: complement factor H, human, SCR domains 6 to 8, His402 allotype; It says that SCR-6/8, unlike SCR-1/5 and SCR-16/20, has no His6-tag; PDB 2UWN is a cited crystal structure of SCR-6/8 His402 whose limits may differ from this construct; also called SCR-6/8 His402 allotype; source: E. coli BL21 (DE3)pLysS, pET14b

Molecular target: the molecule itself
Experiment: AUC; sedimentation velocity, SCR-6/8 at 0.3 mg/ml (14.6 μM), Hepes buffer, 20 °C, 50,000 rpm, c(s) analysis; monomer and dimer peaks seen throughout the ZnSO4 titration 0.2-600 μM

| Protein | stoichiometry N |
| --- | --- |
| B1 | 2 |
| B2 | 2 |
